Experimental data reported in article PMC4597091.

Target: PepT2^ECD-S427C, labelled for MST (Rattus norvegicus) (UniProt Q63424)
Experiment: MST; 1.5 μM labelled ECD (S437C or S427C, blue maleimide) with 0.03–1,000 μM ligand; 22°C; 25 mM MES pH 6.5, 100 mM NaCl

Kd: 6 µM
Substance: trypsin (intestinal protease) (enzyme)
